The values that follow come from patent publication US20230080534A1 (SHANGHAI BIOTROY BIOTECHNIQUE, published 2023).

Assay [1] concerns the target T1, human SEMG2 full-length protein (human, UniProt Q02383 24-582, limits assumed).
T1 construct: also called SEMG2 protein; semenogelin 2
T1 sequence: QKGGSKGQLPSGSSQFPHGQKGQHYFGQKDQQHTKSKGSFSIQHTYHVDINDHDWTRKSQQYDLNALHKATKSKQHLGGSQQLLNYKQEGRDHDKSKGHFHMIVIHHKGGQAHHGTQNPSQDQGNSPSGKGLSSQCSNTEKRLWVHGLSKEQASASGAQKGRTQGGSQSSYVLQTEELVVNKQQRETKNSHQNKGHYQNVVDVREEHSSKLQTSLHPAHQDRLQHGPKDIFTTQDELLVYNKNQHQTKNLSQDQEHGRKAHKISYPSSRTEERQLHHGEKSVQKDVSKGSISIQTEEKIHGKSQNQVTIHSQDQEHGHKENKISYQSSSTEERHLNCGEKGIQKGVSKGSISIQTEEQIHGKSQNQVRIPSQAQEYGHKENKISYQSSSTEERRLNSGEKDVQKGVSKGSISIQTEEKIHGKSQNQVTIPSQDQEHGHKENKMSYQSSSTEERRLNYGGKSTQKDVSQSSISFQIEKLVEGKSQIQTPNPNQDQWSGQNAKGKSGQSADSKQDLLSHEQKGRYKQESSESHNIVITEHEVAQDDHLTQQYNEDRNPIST
Kind of assay: ELISA on SEMG2; the EC50 table prints no unit, the axis is log (antibody concentration, nM).

The target in assay [2] is T1, human SEMG2 full-length protein. In words: ELISA (FIG. 21B-D).
Assay [3] addresses T2, BSA-conjugated human SEMG2 (497-509) polypeptide (human, also: coupled to BSA, site not given here).
T2 peptide: QIEKLVEGKSQIQ
Kind of assay: ELISA (FIG. 21B-D).

A further assay addresses T3, QIEKLAEGKSQIQ (not fully specified).
T3 construct: member of the group m41; the text speaks of glycine substitution, the sheet prints alanine
T3 peptide: QIEKLAEGKSQIQ
In words: ELISA, immobilized peptide QIEKLAEGKSQIQ
The source says:
(§1) FIG. 20 depicts the value detected by ELISA, i.e., OD₄₅₀ absorbance. […] This experiment is used to determine the precise amino acid epitopes that different monoclonal antibodies bind to, and the relative importance of each amino acid to the binding antibody.

The next assay concerns the target T4, QAEKLVEGKSQIQ (not fully specified).
T4 construct: member of the group m41; the text speaks of glycine substitution, the sheet prints alanine
T4 peptide: QAEKLVEGKSQIQ
In words: ELISA, immobilized peptide QAEKLVEGKSQIQ
From the text: as §1

The target in assay [4] is T1, human SEMG2 full-length protein. Kind of assay: biolayer interferometry (ForteBio Blitz or Gator). On the procedure:
The equilibrium dissociation constant (KD) of the antibody of the present invention binding to human SEMG2 was determined by biolayer interferometry (ForteBio Bltz or Gator instrument). […] 100 μl of SD buffer, antibody and SEMG2 were added to a 96-well black polystyrene half area microplate, respectively. Select the sensor location based on the sample location layout. KD values were analyzed using molecular interaction analysis software. In the experiments of the assays, the affinity constants of murine monoclonal antibodies and human antibodies H88-67, H88-93 and H88-96 are shown in Table 8, and the affinity and dissociation curves of SEMG2 and corresponding proteins are shown in FIG. 25.

The target in another assay is T5, AIEKLVEGKSQIQ (not fully specified).
T5 construct: member of the group m41; the text speaks of glycine substitution, the sheet prints alanine
T5 peptide: AIEKLVEGKSQIQ
Kind of assay: ELISA, immobilized peptide AIEKLVEGKSQIQ
From the text: as §1

A further assay has as its target T6, QIEKAVEGKSQIQ (not fully specified).
T6 construct: alanine at this position
T6 peptide: QIEKAVEGKSQIQ
In words: ELISA, immobilized peptide QIEKAVEGKSQIQ
From the text: as §1

The target of the next assay is T7, QIEKLVEGKSQIA (not fully specified).
T7 construct: alanine at this position
T7 peptide: QIEKLVEGKSQIA
In words: ELISA, immobilized peptide QIEKLVEGKSQIA
From the text: as §1

A further assay concerns the target T8, QIEKLVEAKSQIQ
T8 construct: member of the group m41; position 504 is glycine in SEMG2 and the sheet prints alanine there
T8 peptide: QIEKLVEAKSQIQ
Kind of assay: ELISA, immobilized peptide QIEKLVEAKSQIQ
From the text: as §1

In another assay the target is T9, QIEKLVEGASQIQ (not fully specified).
T9 construct: member of the group m41; the text speaks of glycine substitution, the sheet prints alanine
T9 peptide: QIEKLVEGASQIQ
Kind of assay: ELISA, immobilized peptide QIEKLVEGASQIQ
From the text: as §1

The target in a further assay is T10, SEMG2(442-453) fragment (human).
T10 peptide: IHGKSQNQVTIP
Kind of assay: ELISA, immobilized antigen SEMG2 (442-453). The source says:
(§2) To clearly distinguish the binding epitopes of blocking antibodies (i.e., antibodies that can inhibit the binding between SEMG2 and CD27) and non-blocking antibodies, a corresponding ELISA analysis method was established. […] Anti-mouse or anti-rabbit secondary antibodies were then used to detect the corresponding bound antibodies.

A further assay has as its target T11, SEMG2(354-403) fragment (human).
T11 peptide: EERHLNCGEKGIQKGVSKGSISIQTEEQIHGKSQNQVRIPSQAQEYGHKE
Kind of assay: ELISA, immobilized antigen SEMG2 (354-403).
From the text: as §2

Assay [5] addresses T12, SEMG2(497-509) polypeptide QIEKLVEGKSQIQ (human).
T12 peptide: QIEKLVEGKSQIQ
Kind of assay: ELISA, immobilized peptide QIEKLVEGKSQIQ
From the text: as §1

In the next assay the target is T13, QIEKLVEGKAQIQ (not fully specified).
T13 construct: alanine at this position
T13 peptide: QIEKLVEGKAQIQ
Kind of assay: ELISA, immobilized peptide QIEKLVEGKAQIQ
From the text: as §1

The next assay addresses T14, SEMG2(563-574) fragment (human).
T14 peptide: VAQDDHLTQQYN
In words: ELISA, immobilized antigen SEMG2 (563-574).
From the text: as §2

For assay [6], the target named is T1, human SEMG2 full-length protein. In words: ELISA, plate coated with SEMG2 protein, anti-mouse secondary antibody; the EC50 table prints no unit, the axis is log (antibody concentration, nM).
The target of assay [7] is T12, SEMG2(497-509) polypeptide QIEKLVEGKSQIQ
Kind of assay: ELISA, immobilized antigen SEMG2 (497-509).
From the text: as §2

Assay [8] concerns the target T1, human SEMG2 full-length protein. In words: ELISA, immobilized antigen SEMG2 (1-582).
From the text: as §2

The next assay has as its target T15, QIEKLVAGKSQIQ (not fully specified).
T15 construct: member of the group m41; the text speaks of glycine substitution, the sheet prints alanine
T15 peptide: QIEKLVAGKSQIQ
Kind of assay: ELISA, immobilized peptide QIEKLVAGKSQIQ
From the text: as §1
To further precisely define the exact epitopes (specific to the level of single amino acid) to which blocking antibodies MM02, MM05, MM07, MM08, MM13, MM14 bind, corresponding ELISA analysis method was established. […] Anti-mouse or anti-rabbit secondary antibodies were then used to detect the corresponding bound antibodies.

The next assay deals with T16, QIAKLVEGKSQIQ (not fully specified).
T16 construct: member of the group m41; the text speaks of glycine substitution, the sheet prints alanine
T16 peptide: QIAKLVEGKSQIQ
Kind of assay: ELISA, immobilized peptide QIAKLVEGKSQIQ

For a further assay, the target named is T17, QIEKLVEGKSQAQ (not fully specified).
T17 construct: member of the group m41; the text speaks of glycine substitution, the sheet prints alanine
T17 peptide: QIEKLVEGKSQAQ
In words: ELISA, immobilized peptide QIEKLVEGKSQAQ
From the text: as §1

The target in another assay is T18, QIEALVEGKSQIQ (not fully specified).
T18 construct: member of the group m41; the text speaks of glycine substitution, the sheet prints alanine
T18 peptide: QIEALVEGKSQIQ
In words: ELISA, immobilized peptide QIEALVEGKSQIQ
From the text: as §1

Another assay has as its target T19, QIEKLVEGKSAIQ (not fully specified).
T19 construct: alanine at this position
T19 peptide: QIEKLVEGKSAIQ
In words: ELISA, immobilized peptide QIEKLVEGKSAIQ
From the text: as §1

Where a chain is given by its changes, count along the chain named. No end group written: not given here.

B1: 67-3-67-3 (antibody, V domains shown)
VH: QVQLLESGGGVVQPGRSLRLSCAASGFTFSSYAMHWVRQASGKGLEWVAVISYDGSNKYYADSVKGRFTISRDNSKNTLYLQMNSLRAEDTAVYYCARMDNHGSPDYWGQGTLVTVSS
VL: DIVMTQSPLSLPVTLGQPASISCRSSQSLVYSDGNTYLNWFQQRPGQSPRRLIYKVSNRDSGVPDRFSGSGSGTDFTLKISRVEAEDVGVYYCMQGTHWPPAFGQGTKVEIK
Molecule B1 gave a half-maximal effective concentration (EC50) in assay [1] of 0.614 nM. Also, the “fold higher affinity than the parent antibody (H88-67)” value in assay [2] and in assay [3] was above 10 fold in each case.

B2: 67-3-67-4 (antibody, V domains shown)
VH: B1 VH
VL: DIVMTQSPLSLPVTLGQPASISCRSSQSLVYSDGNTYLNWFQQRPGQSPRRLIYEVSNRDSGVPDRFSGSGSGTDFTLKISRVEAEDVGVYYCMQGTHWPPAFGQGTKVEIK
Molecule B2 registered an EC50 in [1] of 0.537 nM. In addition, the “fold higher affinity than the parent antibody (H88-67)” value in assay [2] and in assay [3] was above 10 fold throughout.

B3: 67-3-67-5 (antibody, V domains shown)
VH: B1 VH
VL: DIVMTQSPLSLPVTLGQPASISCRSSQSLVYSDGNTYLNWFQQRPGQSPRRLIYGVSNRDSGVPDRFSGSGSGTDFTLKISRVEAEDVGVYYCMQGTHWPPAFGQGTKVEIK
Turning to B3, in assay [1], it took 0.68 nM to reach a half-maximal effect (EC50). Also, the “fold higher affinity than the parent antibody (H88-67)” value in assay [2] and in assay [3] was above 10 fold throughout.

B4: 67-9-67-3 (antibody, V domains shown)
VH: B1 VH with N101S, H102G
VL: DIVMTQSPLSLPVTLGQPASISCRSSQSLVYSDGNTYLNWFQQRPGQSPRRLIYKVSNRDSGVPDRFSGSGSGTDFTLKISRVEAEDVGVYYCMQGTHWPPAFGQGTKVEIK
Regarding B4, a half-maximal response in assay [1] (EC50) required 0.272 nM. The “fold higher affinity than the parent antibody (H88-67)” value in [2] and in assay [3] was above 10 fold in each case.

B5: MM08 (antibody, IgG1, V domains shown)
VH: QVQLQQPGAELVRPGASVKLSCKSSDYTFTRYWMNWVKQRPGQGLEWIGMIDPSDSETHHNQMFKDKATLTVDKSSSTAYMQLSSLTSEDSAVYFCARYLGGKEGSFDYWGQGTTLTVSS
VL: DIVLTQSPSSLAVSAGERVTMSCKSSQSLFNSRTRKNYLAWYQQKPGQSPKLLLYWASTRESGVPDRFTGSGSGTDFTLTISSVKTEDLAVYYCKQSYELPWTFGGGTKLEMKR
With B5, the OD450 absorbance turned out to be 0.509 with QIEKLAEGKSQIQ; 0.671 with QAEKLVEGKSQIQ; 0.942 with AIEKLVEGKSQIQ; 0.213 with QIEKAVEGKSQIQ; 1.19 with QIEKLVEGKSQIA; 0.824 with QIEKLVEAKSQIQ. Besides, the OD450 absorbance with QIEKLVEGASQIQ was determined as 0.939; in [5], 1.26; with QIEKLVEGKAQIQ it was 0.023; with QIEKLVAGKSQIQ, 0.566; in the assay with QIAKLVEGKSQIQ it was 0.544; in the assay with QIEKLVEGKSQAQ, 0.798. The OD450 absorbance was determined as 0.789 with QIEALVEGKSQIQ and 1.22 with QIEKLVEGKSAIQ. In assay [4], this molecule came in with a dissociation constant Kd of 2.34 nM. Besides, the A450 absorbance was determined as 0.008 with SEMG2(442-453) fragment; 0.012 in the assay with SEMG2(354-403) fragment; 0.001 in the assay with SEMG2(563-574) fragment; 1.14 in assay [7]; 1.13 in assay [8]. For the same molecule, the binding result in the assay with SEMG2(442-453) fragment, with SEMG2(354-403) fragment and in the assay with SEMG2(563-574) fragment was “no binding” each time. Moreover, a half-maximal effect in [6] (EC50) was put at 0.418 nM.

B6: MM15 (antibody, IgG2a, V domains shown)
VH: QVQLKESGPGLVAPSQSLSITCTVSGFSLTRYGVSWVRQTPGKGLEWLGIIWGDGSTNYHSALISRLSISKDNSKSQVFLKLNSLQTDDTATYYCAKQERFSDGYYDGFAYWGQGTLVTVSA
VL: QIVLTQSPAIMSASPGEKVTITCSASSSVSYMHWFQQKPGTSPKLWIYSTSNLASGVPARFSGSGSGTSYSLTISRMEAEDAATYYCQQRSSYPFTFGSGTKLEIKR
B6: the EC50 in assay [6] was 0.444 nM.

B7: MM07 (antibody, V domains shown)
VH: QIQLVQSGPELKKPGETVRISCKASGYTLTTAGMQWVQKIPGKGLKWIGWINTHSGVAEFAEDFKGRFAFSLETSANTAYLQIRNLKNEDTATYFCARLGLLGYWGQGTTLTVSS
VL: DILLTQSPAILSVSPGERVSFSCRASQSIGTTIHWYQQRTNGSPRLLIKYASESISGIPSRFSGSGSGTDFTLSINSVESEDIADYYCQQSNSWPWTFGGGTKLEIKR
notes: The VH and VL begin with what look like leader peptides (MDWLW..., MVSSAQ...)
In the case of B7, the OD450 absorbance came to 0.814 with QIEKLAEGKSQIQ; 0.833 with QAEKLVEGKSQIQ; 0.919 with AIEKLVEGKSQIQ; 0.123 with QIEKAVEGKSQIQ; 1.26 in the assay with QIEKLVEGKSQIA; 0.58 in the assay with QIEKLVEAKSQIQ. The OD450 absorbance with QIEKLVEGASQIQ amounted to 0.79; in assay [5], 1.19; with QIEKLVEGKAQIQ, 0.296; with QIEKLVAGKSQIQ, 0.899; in the assay with QIAKLVEGKSQIQ, 0.48; with QIEKLVEGKSQAQ, 0.509. For the same molecule, the OD450 absorbance came to 0.822 in the assay with QIEALVEGKSQIQ and 1.16 with QIEKLVEGKSAIQ. In assay [4], this molecule returned a Kd of 1.82 nM. Moreover, the A450 absorbance with SEMG2(442-453) fragment was 0.011; with SEMG2(354-403) fragment, 0.001; with SEMG2(563-574) fragment it was 0.012; in assay [7], 1.14; in assay [8], 1.14. Also, the binding result in the assay with SEMG2(442-453) fragment, in the assay with SEMG2(354-403) fragment and with SEMG2(563-574) fragment was “no binding” each time.
